Source: patent US20230374147A1 (HUMMINGBIRD BIOSCIENCE PTE, published 2023)

Tests used:
[1] = target: T1, Human HER3-His (Sino Biological, 10201-H08H) (human, UniProt P21860 20-643); assay: ELISA, coated His-tagged antigen
T1 construct: Specificity control; also called Human HERS-His

[2] = target: T2, His-tagged cynomolgous macaque BCMA (Acro Biosystems, BCA-C52H7) (cynomolgus macaque, UniProt Q02223 1-54 (human entry)); assay: ELISA, coated Cyno BCMA-His
T2 construct: Bought protein; also called cyno BCMA; CyBCMA; not shown: His tag

[3] = target: T3, Cyno TACI-His (Sino Biological, 90976-C08H) (cynomolgus macaque, UniProt G7PTR7 1-165); assay: ELISA, coated Cyno TACI-His
T3 construct: Bought protein; also called cynomolgous macaque TACI; CyTACI
T3 sequence: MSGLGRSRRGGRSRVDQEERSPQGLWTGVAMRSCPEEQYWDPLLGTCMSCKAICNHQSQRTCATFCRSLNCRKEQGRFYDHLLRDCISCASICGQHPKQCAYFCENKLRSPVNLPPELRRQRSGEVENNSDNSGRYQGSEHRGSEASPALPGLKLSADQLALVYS

[4] = target: T4, Human BCMA-His (Sino Biological, 10620-H08H) (human, UniProt Q02223 1-54); assay: ELISA, coated Human BCMA-His
T4 construct: not shown: His tag
T4 sequence: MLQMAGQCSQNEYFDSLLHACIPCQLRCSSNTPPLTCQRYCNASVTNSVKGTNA

[5] = target: T5, recombinant his-tagged human TACI (Sinobiological cat #11937-H08H) (human, UniProt O14836 1-165); assay: ELISA, coated Human TACI-His
T5 construct: Bought protein; also called Human TACI-His; huTACI; not shown: His tag
T5 sequence: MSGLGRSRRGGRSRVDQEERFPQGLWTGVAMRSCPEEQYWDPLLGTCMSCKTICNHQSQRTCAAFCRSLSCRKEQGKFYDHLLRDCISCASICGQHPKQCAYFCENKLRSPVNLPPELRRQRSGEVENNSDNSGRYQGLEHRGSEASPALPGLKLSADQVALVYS

[6] = target: T6, human BCMA expressed on cells (human, UniProt Q02223 1-184); assay: flow cytometry, H929 cells (BCMA+)
T6 construct: the cell line is named under assay; also called wildtype human BCMA
T6 sequence: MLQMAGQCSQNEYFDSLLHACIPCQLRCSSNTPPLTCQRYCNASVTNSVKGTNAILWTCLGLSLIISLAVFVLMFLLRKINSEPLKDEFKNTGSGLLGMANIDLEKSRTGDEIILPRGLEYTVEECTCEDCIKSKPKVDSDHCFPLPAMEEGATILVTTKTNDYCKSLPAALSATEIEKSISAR

[7] = target: T7, His-tagged human BCMA (Acro Biosystems, Cat. #BCA-H522y) (human, UniProt Q02223 1-54); assay: BLI, IgG on HFC tip, His-tagged human BCMA 300-37.5 nM
T7 construct: also called huBCMA; P1; not shown: His tag
T7 sequence: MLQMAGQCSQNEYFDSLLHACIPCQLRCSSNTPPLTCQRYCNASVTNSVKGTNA

[8] = target: T5, recombinant his-tagged human TACI …; assay: BLI, IgG on HFC tip, His-tagged human TACI 300-37.5 nM
[9] = target: T2, His-tagged cynomolgous macaque BCMA …; assay: BLI, IgG on HFC tip, His-tagged cynomolgus BCMA 300-37.5 nM
[10] = target: T3, Cyno TACI-His (Sino Biological, …); assay: BLI, IgG on HFC tip, His-tagged cynomolgus TACI 300-37.5 nM
[11] = target: T6, human BCMA expressed on cells; assay: flow cytometry, fixed RPMI 8226 cells (BCMA+, TACI+: the cells carry both targets)
[12] = target: T7, His-tagged human BCMA (Acro Biosystems, …); assay: BLI (Gator), antibody loaded on HFC biosensor, His-tagged antigen as analyte
[13] = target: T2, His-tagged cynomolgous macaque BCMA …; assay: as above
[14] = target: T5, recombinant his-tagged human TACI …; assay: as above
[15] = target: T7, His-tagged human BCMA (Acro Biosystems, …); assay: ELISA, hybridoma supernatant, coated His-tagged antigen
[16] = target: T2, His-tagged cynomolgous macaque BCMA …; assay: as above
[17] = target: T8, His-tagged mouse BCMA (Acro Biosystems, BCA-M52H3) (mouse, UniProt O88472 1-49); assay: as above
T8 construct: Bought protein; not shown: His tag
T8 chain: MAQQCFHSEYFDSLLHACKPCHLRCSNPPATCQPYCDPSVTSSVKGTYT

[18] = target: T7, His-tagged human BCMA (Acro Biosystems, …); assay: ELISA, IgG purified from hybridoma supernatant, coated His-tagged antigen
[19] = target: T8, His-tagged mouse BCMA (Acro Biosystems, …); assay: as above
[20] = target: T6, human BCMA expressed on cells; assay: flow cytometry, hybridoma supernatant, HEK293T cells stably expressing human BCMA

| Binder | binding result [12] | binding result [13] | binding result [14] | ELISA values (OD 450 nm) [15] [OD] | ELISA values (OD 450 nm) [16] [OD] | ELISA values (OD 450 nm) [17] [OD] | EC50 [18] [µg/mL] | EC50 [19] [µg/mL] | % Parent (percent positive cells) [20] [%] | other results |
| --- | --- | --- | --- | --- | --- | --- | --- | --- | --- | --- |
| 1C8-610 hIgG1 (antibody, V domains shown, also called [93]; hu1C8-610) VH: QVQLVQSGAEVKKPGASVKVSCKASGYTFTNYVMFWVKQKPGQGLEWMGYITPYNDGTKYAQKFQGKVTMTSDKSTSTVYMELSSLTSEDTAVYYCARYDYEGSFDYWGQGTLVTVSS VL: DIQMTQSPSSLSASVGDRVTITCRASQDISNYLNWYQQKPGKAPKLLMRYTSRFHSGVPSRFSGSGSGTDFTLTISSLEQEDFATYYCQQGNTFPPTSGGGTKVEIKR | – | – | – | – | – | – | – | – | – | binding result [1]: no binding (tested: 3 µg/ml (highest concentration)); EC50 [2]: 0.089 nM; EC50 [3]: 7 pM; EC50 [4]: 0.01 nM; EC50 [5]: 0.01 nM; EC50 [6]: 0.0677 nM; Kd [7]: 0.65 nM; koff [7]: 0.00307 s⁻¹; kon [7]: 4.71e+06 M⁻¹ s⁻¹; Kd [8]: 20.8 nM; koff [8]: 0.0205 s⁻¹; kon [8]: 988000 M⁻¹ s⁻¹; Kd [9]: 22.8 nM; koff [9]: 0.0291 s⁻¹; kon [9]: 1.28e+06 M⁻¹ s⁻¹; Kd [10]: 1.25 nM; koff [10]: 0.000839 s⁻¹; kon [10]: 673000 M⁻¹ s⁻¹; EC50 [11]: 0.134 nM |
| 1C8-25 hIgG1 (antibody, V domains shown, also called [95]) VH: QVQLVQSGAEVKKPGASVKVSCKASGYTFTNYVMHWVRQAPGQRLEWMGYILPYNDGTKYSQKFQGRVTITRDTSASTAYMELSSLRSEDTAVYYCARYDWEGSFDYWGQGTTVTVSS VL: DIQMTQSPSSLSASVGDRVTITCRASQDIGNYLNWYQQKPGKAVKLLMRYTSRLHSGVPSRFSGSGSGTDFTLTISSLQPEDFATYYCQQGFTFPPTFGGGTKLEIKR | binds | binds | binds | – | – | – | – | – | – | – |
| 1C8-27 hIgG1 (antibody, V domains shown, also called [96]) VH: QVQLVQSGAEVKKPGASVKVSCKASGYTFTNYVMHWVRQAPGQRLEWMGYILPYNDGTKYSQKFQGRVTITRDTSASTAYMELSSLRSEDTAVYYCARYDWEGSFDYWGQGTTVTVSS VL: DIQMTQSPSSLSASVGDRVTITCAASQDISNYLNWYQQKPGKAVKLLMRYTSRLHSGVPSRFSGSGSGTDFTLTISSLQPEDFATYYCQQGNRFPPTFGGGTKLEIKR | binds | binds | binds | – | – | – | – | – | – | – |
| 539-SP7-F4 (antibody produced by the hybridoma) (antibody, V domains shown, Mouse antibody from B cell hybridoma (culture supernatant or IgG purified from it)) VH: EVQLQQSGPELVKPGASMKISCKASGYSFTGYIMNWVKQSHGKNLEWIGLINPYNGDSIYNQKFKGKATLTVDKSSSTAYMELFSLTSEDSTVYYCAAGEEFAYWGQGTLVTVSA VL: DIQMTQTSSSLSASLGDRVTISCRASQDISIYLNWFQQKPDGTVKLLIYFTSRLHPGVPSRFSASGSGTDYSLTISHLEHEDIATYFCQQGNTLPRTFGGGTKVELK | – | – | – | 0.893 | 2.35 | 0.318 | 0.0182 | 14.6 | 63.8 | – |
| 538-SP5-B10 (antibody produced by the hybridoma) (antibody, V domains shown, Mouse antibody from B cell hybridoma (culture supernatant or IgG purified from it)) VH: EVQLQQSGPELVKPGASVKMSCKASGYTFTSYVMHWVKQKPGRGLEWIAYILPFNDVTKYNEKFKGKATLTSDKSSNTAYMELSSLTSEDSAVYYCARWEWDDGYFDYWGQGTTLTVSS VL: DAVMTQTPLSLPVSLGDQASISCRSSQSLENSNGNTYLNWYLQKPGQSPQLLIYRVSNRFSGVLDRFSGSGSGTDFTLKISRVEAEDLGVYFCLQVSHVPFTFGAGTKLELK | – | – | – | 0.812 | 2.44 | 0.247 | 0.0358 | 21 | 70.8 | – |
| 539-SP1-C8 (antibody produced by the hybridoma) (antibody, V domains shown, Mouse antibody from B cell hybridoma (culture supernatant or IgG purified from it)) VH: EVQLQQSGPELVKPGSSVKMSCKASGYTFTNYVMHWVKQKPGQGLEWIGYILPYNDGTKYNEKFKGKATLTSDKSSSTAYMEFSVLTSEDSAVYYCARYDYEGSFDYWGQGTALTVSS VL: DIQMTQTTSSLSASLGDRVTISCRASQDISNYLNWYQQKPDGTVKLLMCYTSRLHSGVPSRFSGSGSGTDFSLTISNLEQEDIATYFCQQGNTFPPTFGGGTKLEIK | – | – | – | 0.686 | 2.04 | 0.339 | 0.0299 | 9.19 | 56.5 | – |
